# Measured values taken from the nanobody polyreactivity screen of Harvey et al. (2022).
# Test: yeast display, Sf9 membrane polyspecificity reagent, FACS + sequencing; frameworks hold sequencing errors
# Outline: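 Galactose-induced (36–48 hours) yeast carrying a synthetic nanobody display library were exposed to 10% biotinylated, detergent-solubilized Sf9 membrane reagent at 4 °C for 1 hour. FACS followed streptavidin microbead enrichment, using low and high (top ~1%) gates for expression (anti-HA) and reagent binding (streptavidin). Colony PCR, MiSeq 2 × 250 sequencing and CDR-length filtering followed. Labels for polyreactivity reflect the gate of origin.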
row,Sequence,polyreactivity (PSR sort gate)
1,QVQLVESGGGLVQAGGSLRLSCAASGNIFDAYGMGWNRQAPGKETELVAAIDWTGGSTYYADSVKGRFTISRDNAKNTVYLQMNSLKPEDTAVYYCAADWGGGYQQYGNDWVNYWGQGTQVTVSS,low polyreactivity
2,QVQLVESGGGLVQAGGSLRLSCAASGNIFDHYAMGWYRQAPGKERELVASITDSGDSTSYADSVKGRFTISRDNAKNTVYLQMNSLKPEDTAVYYCAADPYSVYGGDYWGQGTQVTVSS,low polyreactivity
3,QVQLVESGGGLVQAGGSLRLSCAASGNIFDLYARGWSRQAPGKERELVAAISASGGRTYYADSVKGRFTISRDNAKNTVYLQMNSLKPEDTAVYYCAAVASYGTDFYYWGQGTQVTVSS,high polyreactivity
4,QVQLVESGGGLVQAGGSLRLSCAASGNIFDRYVMGWYRQAPGKERELVAAISVSGGSTYYADSVKGRFTISRDNAKNTVYLQMNSLKPEDTAVYYCAAHSRLINWYDYWGQGTQVTVSS,high polyreactivity
5,QVQLVESGGGLVQAGGSLRLSCAASGNIFDVYAMGWYRQAPGKERELVAAISRSGSSTYYADSVKGRFTISRDNAKNTVYLQMNSLKQEDTAVYYCAAKISLGQRTYYYWGQGTQVTVSS,high polyreactivity
6,QVQLVESGGGLVQAGGSLRLSCAASGNIFESYGMGGYRQAPGKERELVAAISFSGDSTYYADSVKGRFTISRDNAKNSVYLQMNSLKPEDTAVYYCATDVGYVYGYYYWGQGTQVTVSS,low polyreactivity
7,QVQLVESGGGLVQAGGSLRLSCAASGNIFEYYAMGWYRKAPGKERELVATITSGGSTNYADSVKGRFTISRDNAKNTVYLQMNSLKPEDTAVYYCNADIISVSVYYFIVEYDYWGQGTQVTVSS,low polyreactivity
8,QVQLVESGGGLVQAGGSLRLSCAASGNIFFSNAMGWYRQAPGKERELVASISQSGGSTYYADSVKGRFTISRDNAKNTVYLQMNSLKPEDTAVYYCAATQVRRGPAWGRDYWGQGTQVTVSS,low polyreactivity
9,QVQLVESGGGLVQAGGSLRLSCAASGNIFGQNAMGWYRQAPGKERELVAAISSNGGRTYYADSVKGRFTISRDNAKNTVYLQMNSLKPEDTAVYYCAAEAVYAYEWYYYWGQGTQVTVSS,high polyreactivity
10,QVQLVESGGGLVQAGGSLRLSCAASGNIFKGHVMGSYRKAPGKERELVAAISRSGGYTYYAVSVKGRFTISRDNAKNTVYLQMNSLKPADTAVYYCAAGRRLVRVVGGDYYGRYVYWGQGTQVTLSS,high polyreactivity
11,QVQLVESGGGLVQAGGSLRLSCAASGNIFLDYAMGWYRQAPGKEREWVAAITSGGSTNYADSVKGRFTISRDNAKNTVYLQMNSLKPEDTAVYYCNKDVWDGYDWPEFDYWGQGTQVTVSS,low polyreactivity
12,QVQLVESGGGLVQAGGSLRLSCAASGNIFLRYAMGWYRQAPGKERELVAAISYSGGGSTYYADSVKGRFTISRDNAKNTVYLQMNSLKPEDTAVYYCAKVLTSRTQFFDYDYWGQGTQVTVSS,low polyreactivity
13,QVQLVESGGGLVQAGGSLRLSCAASGNIFLYYAMGWSRQAPGKERELVADIDSSGASTYYADSVKGRFTISRDNAKNTVYLQMNSLKPEDTAVYYCAAEFHWWYAGYDYGYWGQGTQVTVSS,low polyreactivity
14,QVQLVESGGGLVQAGGSLRLSCAASGNIFLYYAMGWYRQAPGKERELVARIDSGGSTYYADSVKGRFTISRDNAKNTVYLQMNSLKPEDTAVYYCATDEGTVGGQQLRPLMDYWGQGTQVTVSS,low polyreactivity
15,QVQLVESGGGLVQAGGSLRLSCAASGNIFNTNARGWYRQAPGKDTELVAAISWNTGSTYADSVKGRFTISRDNAKKTVDLPMNSLKPEDTAVYYCAADRSHAYYRKNRVDYWGQGTQVTVSS,low polyreactivity
16,QVQLVESGGGLVQAGGSLRLSCAASGNIFPDYAMGWYRQAPGKERELVAAISTSGSSTYYADSVKGRFTISRDNAKNNDYLQMNSLKPEDTAVYYCNAYRNADYVYWGQGTQVTVSS,low polyreactivity
17,QVQLVESGGGLVQAGGSLRLSCAASGNIFPRYAMGLYRQAPGKERELVAAITWRTSSTYYADSVKGRFTISRDNAKNTVYLQMNSLKPEDTAVYFCAKTSSRIAGEYWGQGTQVTVSS,low polyreactivity
